Tests used:
[1] = biological target: Zika virus (ZIKV), whole virus particles (Zika virus); test: virus capture ELISA
[2] = biological target: Zika virus (ZIKV), whole virus particles (Zika virus); test: cell-based or functional assay

B1: CC4 mAb (P1604) (antibody, V domains shown)
VH: VQLVQESGPGPVKPSETLSLTCTVSGGSISSYYWSWIRQPAGKGLEWIGRIYTSGSTNYNPSLKSRVTMSVDTSKNQFSLKLSSVTAADTAVYYCARESGSLYMDVWGKGTAVTVSS
VL: DVVMTQSPATLSLPPGERATLSCRASQSVSSYLAWYQQKPGQAPRLLIYDASNRATGIPARFSGSGSGTDFTLTISSLEPEDFAVYYCQQRSNWPLTFGGGTKVDIK
ZIKV binding Abs 450 nm [1]: 0.87 Abs 450 nm | % of Zika virus Neutralized (Vero infectivity assay), antibody at 4 µg/ml [2]: 19.3%

— patent US20190324040A1
